This note sets out measurements from patent publication US20220289850 (published 2022).

Substitutions are numbered along the chain they refer to. Where “and” joins values, the source holds several entries; their conditions need not be identical. Equal values may be shown once.

This test deals with T1, human integrin avb8 (human).
T1 chain 1: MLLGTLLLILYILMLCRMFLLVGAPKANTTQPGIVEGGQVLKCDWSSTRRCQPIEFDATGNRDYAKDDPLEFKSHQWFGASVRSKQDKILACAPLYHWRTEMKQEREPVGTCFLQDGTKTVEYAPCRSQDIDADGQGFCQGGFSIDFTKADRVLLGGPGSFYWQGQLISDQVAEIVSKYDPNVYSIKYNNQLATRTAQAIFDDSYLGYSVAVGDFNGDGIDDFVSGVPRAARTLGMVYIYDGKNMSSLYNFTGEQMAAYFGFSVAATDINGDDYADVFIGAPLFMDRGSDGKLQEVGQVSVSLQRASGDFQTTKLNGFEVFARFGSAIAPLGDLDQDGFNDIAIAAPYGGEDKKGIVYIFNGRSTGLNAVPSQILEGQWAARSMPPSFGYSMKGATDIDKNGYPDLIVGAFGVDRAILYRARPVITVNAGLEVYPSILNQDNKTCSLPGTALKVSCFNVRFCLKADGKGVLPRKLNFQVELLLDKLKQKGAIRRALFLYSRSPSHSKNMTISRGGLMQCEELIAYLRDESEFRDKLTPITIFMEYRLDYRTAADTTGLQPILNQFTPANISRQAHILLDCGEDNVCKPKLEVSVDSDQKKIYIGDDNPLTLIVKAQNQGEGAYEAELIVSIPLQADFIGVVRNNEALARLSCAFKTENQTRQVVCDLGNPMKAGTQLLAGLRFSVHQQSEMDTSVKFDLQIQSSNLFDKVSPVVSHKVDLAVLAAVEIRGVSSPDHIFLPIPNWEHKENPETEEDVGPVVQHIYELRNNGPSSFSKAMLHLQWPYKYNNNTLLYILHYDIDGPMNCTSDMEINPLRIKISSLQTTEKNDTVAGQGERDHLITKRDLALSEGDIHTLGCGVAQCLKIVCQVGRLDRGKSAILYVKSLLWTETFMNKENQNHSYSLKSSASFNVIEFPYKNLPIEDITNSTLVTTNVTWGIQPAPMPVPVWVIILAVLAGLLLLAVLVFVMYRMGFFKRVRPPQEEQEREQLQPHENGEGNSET
T1 chain 2: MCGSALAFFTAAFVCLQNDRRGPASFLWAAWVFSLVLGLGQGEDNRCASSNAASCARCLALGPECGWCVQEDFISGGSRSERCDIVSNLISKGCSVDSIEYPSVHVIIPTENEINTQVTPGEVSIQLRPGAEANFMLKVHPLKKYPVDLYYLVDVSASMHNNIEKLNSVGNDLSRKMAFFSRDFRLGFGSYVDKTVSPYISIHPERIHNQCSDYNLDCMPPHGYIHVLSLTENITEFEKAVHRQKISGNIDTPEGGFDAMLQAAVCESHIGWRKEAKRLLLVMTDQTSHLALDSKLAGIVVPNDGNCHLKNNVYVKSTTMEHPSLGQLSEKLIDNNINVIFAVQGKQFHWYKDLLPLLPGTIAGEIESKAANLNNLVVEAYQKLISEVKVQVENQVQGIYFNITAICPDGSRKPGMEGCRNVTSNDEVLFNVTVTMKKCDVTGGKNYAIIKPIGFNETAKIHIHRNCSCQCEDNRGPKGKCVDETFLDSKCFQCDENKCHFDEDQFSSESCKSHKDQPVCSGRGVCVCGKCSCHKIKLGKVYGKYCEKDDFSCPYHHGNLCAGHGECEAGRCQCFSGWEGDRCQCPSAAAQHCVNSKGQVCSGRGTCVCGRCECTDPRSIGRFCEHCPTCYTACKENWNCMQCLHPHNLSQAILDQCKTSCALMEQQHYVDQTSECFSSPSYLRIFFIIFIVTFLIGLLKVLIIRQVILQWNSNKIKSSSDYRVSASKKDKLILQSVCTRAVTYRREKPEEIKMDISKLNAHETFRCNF
As to the kind of experiment: SPR 25C.

B1: Mouse hybridoma ADWA-11 Fab (antibody, V domains shown)
VH: EVQLQQSGAELVRPGAFVKLSCKASGFNIKDYYMNWVLQRPEQGLEWIGWIDPDNGNTIYDPKFQGKASITADTSSNTAYLQLSSLTSEDTAVYYCARRLLMDYWGQGTSVTVSS
VL: DIVMTQAAPSVPVTPGESVSISCRSTKSLLHFNGNTYLFWFLQRPGQSPQRLIYYMSNLASGVPDRFSGRGSGTDFTLRISRVEAEDVGVYYCMQSLEYPFTFGTGTKLEIK
Broadly, the Kd is the constant that tells how readily two partners part at equilibrium. The low end stands for higher affinity, the high end for lower affinity. For the molecule B1, binding was characterised by a dissociation constant (Kd) of 0.536 nM.

B2: ADWA11 VH05/VK01 (VH05-2_VK01) Fab (antibody, V domains shown)
VH: EVQLVESGGGLVQPGGSLRLSCAASGFNIKDYYMNWVRQAPGKGLEWVGWIDPDNGNTIYDPKFQGRFTISADTSKNSAYLQMNSLRAEDTAVYYCARRLLMDYWGQGTLVTVSS
VL: DIQMTQSPSSLSASVGDRVTITCRSTKSLLHFNGNTYLFWYQQKPGKAPKRLIYYMSNLASGVPSRFSGSGSGTDFTLTISSLQPEDFATYYCMQSLEYPFTFGQGTKVEIK
Take B2: the Kd is 0.209 nM and 0.118 nM.

B3: ADWA11 2.4 Fab (antibody, V domains shown)
VH: B2 VH with N55Q, D61E
VL: B2 VL with L30S, N58S, M94Q, Q105G
The molecule B3 had a Kd below 0.2 nM.
